{"source": "patent US12233109B2", "about": "“Long-acting GLP-1r agonist as a therapy of neurological and neurodegenerative conditions” (The Johns Hopkins University, priority 2015, dated 2025)", "origin": "cited, not measured here", "details": "in vivo", "data": [{"substance": "Albiglutide: dipeptidyl peptidase-4-resistant glucagon-like peptide-1 dimer fused to human albumin", "values": [{"measurement": "half-life", "result": "four to seven"}]}]}
